One block for each molecule: values may come before it.
Experiments:
[1] = molecular target: T1, MsCS (citrate synthase from Metallosphaera sedula) (Metallosphaera sedula, UniProt A4YGX6); assay: DTNB absorbance at […] nm, inhibition kinetics; assay type: biochemical
T1 construct: gene Msed_1522; C-terminal 6xHis tag (pET-30a, NdeI/XhoI), E. coli BL21(DE3)-T1R; homodimer about 85 kDa; modelled domains Met1-Arg370; His214, His253, Asp307 catalytic

[2] = molecular target: Citrate synthase from Metallosphaera sedula (Metallosphaera sedula); assay: SEC; HiPrep 26/60 Sephacryl S-300 HR column, buffer A (40 mM Tris-HCl, pH 8.0), 277 K; eluted at approximately 85 kDa
purified protein [3] = substrate: CC(=O)SCCNC(=O)CCNC(=O)[C@H](O)C(C)(C)COP(=O)(O)OP(=O)(O)OC[C@H]1O[C@@H](n2cnc3c(N)ncnc32)[C@H](O)[C@@H]1OP(=O)(O)O; assay: purified protein; assay type: biochemical, Metallosphaera sedula; conditions: 100 mM potassium phosphate pH 8.0, 150 mM NaCl, 50 uM DTNB, 298 K, oxaloacetate concentration not stated, no inhibitor, 25.0 °C
purified protein [4] = substrate: O=C(O)CC(=O)C(=O)O; assay: purified protein; assay type: biochemical, Metallosphaera sedula; conditions: 0.5 mM acetyl-CoA, 100 mM potassium phosphate pH 8.0, 150 mM NaCl, 50 uM DTNB, 298 K, no inhibitor, 25.0 °C

Molecule: Nc1ncnc2c1ncn2[C@@H]1O[C@H](COP(=O)(O)OP(=O)(O)OP(=O)(O)O)[C@@H](O)[C@H]1O [ATP]
Ki [1]: 4.34 mM

B1: MsCS (citrate synthase from Metallosphaera sedula) (Metallosphaera sedula DSM 5348) (protein)
chain: MELRKGLEDIAIKETSITYIDGELGRLYYRGYSIFDLASFSNFEEVAYLLWYGKLPTRHELDDFKSRLAEERSISEDISTFVKRTAKFGNPMDILRTTVSMMGLEDRSEGDLIGKAIKMTAKIPTIISLIQRTRRNQEFVEPDPSLSHSENFLYMIRGERPSPSDTRVLDVSLMLHMDHEMNASTMACLVVASTLSDIYSSVVAGISALKGPLHGGANSEALKQFMEIETPDNVEKYVMNKLSSGQRLMGFGHRIYKTMDPRAKILKEYANQLSKNEEIKRLFEIANRVEEIGIKILGKRGIYPNVDFYSGLVFYAMGFDPDLFPTIFASARVIGWTAHVDEYLKDNKLIRPKAIYVGDLGKRYVPIEER
notes: C-terminal 6xHis tag (pET-30a, NdeI/XhoI), E. coli BL21(DE3)-T1R; homodimer about 85 kDa; modelled domains Met1-Arg370; His214, His253, Asp307 catalytic
Km (purified protein [3]): 16.5 µM
kcat (purified protein [3]): 8.56 s⁻¹
kcat/Km (purified protein [3]): 519000 M⁻¹ s⁻¹
Km (purified protein [4]): 41.4 µM
kcat (purified protein [4]): 7.62 s⁻¹

More lines, now with the values ahead:

Ki [1]: 4.41 mM
Molecule: NC(=O)C1=CN([C@@H]2O[C@H](COP(=O)(O)OP(=O)(O)OC[C@H]3O[C@@H](n4cnc5c(N)ncnc54)[C@H](O)[C@@H]3O)[C@@H](O)[C@H]2O)C=CC1 [NADH]

stoichiometry N [2]: 2
Molecule: Citrate synthase from Metallosphaera sedula (enzyme)
